# Test results reported in publication doi:10.1101/207928.
# Biological target: glycosylated full-length human insulin receptor isoform A (human) (UniProt P06213)
# Experiment: negative-stain electron microscopy
substance,measurement,value
glycosylated full-length human insulin receptor isoform A (from UniProt P06213-2 28-1370),stoichiometry N,2
